Patent US20200040101A1
“And” between values parts separate entries of the source, which are not always exact repeats. Identical values can stand only once. Values belong to the binder of their own block, whether it stands above or below them.

Experiments:
[1] = biological target: CLDN18.1 expressed on HEK 293 cells (UniProt P56856); experiment: FACS, hybridoma supernatant on HEK 293 cells expressing CLDN 18.1
[2] = biological target: T1, Claudin-17; experiment: FACS, transfected HEK 293 cells
T1 sequence (P56750 whole entry, species assumed, looked up): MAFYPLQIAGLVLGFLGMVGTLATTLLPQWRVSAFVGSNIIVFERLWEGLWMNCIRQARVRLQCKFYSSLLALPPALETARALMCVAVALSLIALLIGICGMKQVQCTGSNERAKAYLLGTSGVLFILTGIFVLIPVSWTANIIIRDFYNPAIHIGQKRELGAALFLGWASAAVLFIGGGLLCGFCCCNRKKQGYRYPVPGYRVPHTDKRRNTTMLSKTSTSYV

[3] = biological target: Claudin-4; experiment: FACS, transfected HEK 293 cells
[4] = biological target: Claudin-9; experiment: FACS, transfected HEK 293 cells
[5] = biological target: Claudin-22; experiment: FACS, transfected HEK 293 cells
[6] = biological target: T2, Claudin-19; experiment: FACS, transfected HEK 293 cells
T2 sequence (Q8N6F1 whole entry, species assumed, looked up): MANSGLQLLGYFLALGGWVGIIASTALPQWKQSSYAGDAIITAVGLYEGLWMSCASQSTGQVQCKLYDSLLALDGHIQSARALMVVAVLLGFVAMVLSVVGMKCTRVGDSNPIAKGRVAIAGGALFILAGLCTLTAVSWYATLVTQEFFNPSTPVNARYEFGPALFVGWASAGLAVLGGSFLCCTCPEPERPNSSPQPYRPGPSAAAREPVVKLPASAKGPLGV

[7] = biological target: Claudin-8; experiment: FACS, transfected HEK 293 cells
[8] = biological target: T3, Claudin-16; experiment: FACS, transfected HEK 293 cells
T3 sequence (Q9Y5I7 1-235, species assumed, looked up): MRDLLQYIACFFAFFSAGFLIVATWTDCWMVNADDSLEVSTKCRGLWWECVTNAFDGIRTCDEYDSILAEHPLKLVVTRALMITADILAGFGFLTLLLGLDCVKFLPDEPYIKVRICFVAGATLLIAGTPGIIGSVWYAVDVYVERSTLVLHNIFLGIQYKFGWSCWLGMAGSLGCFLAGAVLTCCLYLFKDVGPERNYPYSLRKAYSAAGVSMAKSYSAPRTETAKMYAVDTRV

[9] = biological target: T4, CLDN 7 expressed on HEK 293 cells (UniProt O95471); experiment: FACS, transfected HEK 293 cells
T4 sequence (looked up): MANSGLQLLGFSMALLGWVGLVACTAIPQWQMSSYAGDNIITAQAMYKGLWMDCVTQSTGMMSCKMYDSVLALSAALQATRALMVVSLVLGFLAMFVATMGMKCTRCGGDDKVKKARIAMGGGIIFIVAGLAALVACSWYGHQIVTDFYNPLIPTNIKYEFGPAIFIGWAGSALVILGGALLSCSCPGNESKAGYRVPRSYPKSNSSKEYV

[10] = biological target: T5, Claudin-23; experiment: FACS, transfected HEK 293 cells
T5 sequence (Q96B33 1-292, species assumed, looked up): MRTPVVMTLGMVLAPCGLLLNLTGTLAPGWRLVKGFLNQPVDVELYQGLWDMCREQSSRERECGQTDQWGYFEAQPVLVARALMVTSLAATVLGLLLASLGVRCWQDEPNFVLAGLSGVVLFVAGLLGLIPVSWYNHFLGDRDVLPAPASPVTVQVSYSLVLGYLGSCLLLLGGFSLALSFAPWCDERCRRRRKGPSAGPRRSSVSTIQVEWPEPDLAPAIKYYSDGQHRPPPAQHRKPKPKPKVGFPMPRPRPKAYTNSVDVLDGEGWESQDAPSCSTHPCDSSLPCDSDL

[11] = biological target: Claudin-14; experiment: FACS, transfected HEK 293 cells
[12] = biological target: Claudin-3; experiment: FACS, transfected HEK 293 cells
[13] = biological target: Claudin-34; experiment: FACS, transfected HEK 293 cells
[14] = biological target: T6, Claudin-10; experiment: FACS, transfected HEK 293 cells
T6 sequence (P78369 1-228, species assumed, looked up): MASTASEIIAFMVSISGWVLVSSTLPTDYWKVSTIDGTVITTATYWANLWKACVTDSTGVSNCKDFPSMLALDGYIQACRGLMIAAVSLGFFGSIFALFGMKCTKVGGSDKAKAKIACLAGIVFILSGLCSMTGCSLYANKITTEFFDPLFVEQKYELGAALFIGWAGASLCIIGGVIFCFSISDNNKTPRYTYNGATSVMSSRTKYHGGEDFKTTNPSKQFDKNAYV

[15] = biological target: T7, Claudin-5; experiment: FACS, transfected HEK 293 cells
T7 sequence (O00501 whole entry, species assumed, looked up): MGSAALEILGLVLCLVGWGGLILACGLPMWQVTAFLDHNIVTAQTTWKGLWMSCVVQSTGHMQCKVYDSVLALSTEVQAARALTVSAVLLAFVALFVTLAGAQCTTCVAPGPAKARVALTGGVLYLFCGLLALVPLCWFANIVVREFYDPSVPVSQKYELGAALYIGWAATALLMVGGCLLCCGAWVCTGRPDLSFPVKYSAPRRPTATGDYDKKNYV

[16] = biological target: Claudin-1; experiment: FACS, transfected HEK 293 cells
[17] = biological target: T8, Claudin-11; experiment: FACS, transfected HEK 293 cells
T8 sequence (O75508 whole entry, species assumed, looked up): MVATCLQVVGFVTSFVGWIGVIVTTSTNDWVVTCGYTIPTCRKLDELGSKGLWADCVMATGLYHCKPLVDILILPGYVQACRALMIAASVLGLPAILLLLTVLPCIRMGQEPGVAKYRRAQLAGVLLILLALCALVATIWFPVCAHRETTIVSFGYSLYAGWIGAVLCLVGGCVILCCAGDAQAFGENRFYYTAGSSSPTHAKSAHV

[18] = biological target: Claudin-12; experiment: FACS, transfected HEK 293 cells
[19] = biological target: T9, Claudin-2; experiment: FACS, transfected HEK 293 cells
T9 sequence (P57739 whole entry, species assumed, looked up): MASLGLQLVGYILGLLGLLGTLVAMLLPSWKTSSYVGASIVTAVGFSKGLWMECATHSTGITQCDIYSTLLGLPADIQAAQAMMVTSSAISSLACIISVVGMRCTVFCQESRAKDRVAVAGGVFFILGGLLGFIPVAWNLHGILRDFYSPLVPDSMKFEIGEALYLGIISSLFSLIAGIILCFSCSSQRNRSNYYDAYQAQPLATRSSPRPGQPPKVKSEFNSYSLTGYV

[20] = biological target: purified CLDN18.2 protein (CLDN18.2 ligand) (human) (UniProt P56856); experiment: Octet (ForteBio), antibody on anti-human IgG capture sensor, CLDN18.2 ligand in solution, 1:1 fit
[21] = biological target: human Claudin 18.2 (CLDN18.2) expressed on cells (human) (UniProt P56856); experiment: FACS, transfected HEK 293 cells, first 18.2 column
[22] = biological target: purified CLDN18.2 protein (CLDN18.2 ligand) (human) (UniProt P56856); experiment: Octet (ForteBio), antibody on anti-human IgG capture sensor, CLDN18.2 ligand in solution, 1:1 fit; kdis(1/s)
[23] = biological target: human Claudin 18.2 (CLDN18.2) expressed on cells (human) (UniProt P56856); experiment: cell-based or functional assay
[24] = biological target: purified CLDN18.2 protein (CLDN18.2 ligand) (human) (UniProt P56856); experiment: BLI (ForteBio Octet RED 96), antibody on anti-human IgG capture sensor, CLDN18.2 ligand in solution, 1:1 fit
[25] = biological target: human Claudin 18.2 (CLDN18.2) expressed on cells (human) (UniProt P56856); experiment: FACS, transfected HEK 293 cells, second 18.2 column
[26] = biological target: human Claudin 18.2 (CLDN18.2) expressed on cells (human) (UniProt P56856); experiment: FACS, purified antibody on HEK 293 cells expressing CLDN18.2
[27] = biological target: CLDN18.1 expressed on HEK 293 cells (UniProt P56856); experiment: FACS, transfected HEK293 cells, 10 ug/ml; HEK293 alone 14.2
[28] = biological target: mouse-18.1 (mouse) (UniProt P56857); experiment: as above
Sequence of mouse-18.1 (mouse) (P56857 whole entry): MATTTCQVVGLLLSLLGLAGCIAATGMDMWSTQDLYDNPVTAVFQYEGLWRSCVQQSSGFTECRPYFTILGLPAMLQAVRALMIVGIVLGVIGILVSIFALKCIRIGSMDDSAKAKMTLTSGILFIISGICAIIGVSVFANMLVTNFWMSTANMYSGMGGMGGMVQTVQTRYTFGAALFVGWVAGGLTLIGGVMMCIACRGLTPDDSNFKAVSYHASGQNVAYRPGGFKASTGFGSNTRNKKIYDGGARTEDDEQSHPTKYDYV

[29] = biological target: human Claudin 18.2 (CLDN18.2) expressed on cells (human) (UniProt P56856); experiment: as above
[30] = biological target: mouse-18.2 (mouse) (UniProt P56857); experiment: as above
Sequence of mouse-18.2 (mouse) (P56857 other isoform, or with tags, fused parts or gaps): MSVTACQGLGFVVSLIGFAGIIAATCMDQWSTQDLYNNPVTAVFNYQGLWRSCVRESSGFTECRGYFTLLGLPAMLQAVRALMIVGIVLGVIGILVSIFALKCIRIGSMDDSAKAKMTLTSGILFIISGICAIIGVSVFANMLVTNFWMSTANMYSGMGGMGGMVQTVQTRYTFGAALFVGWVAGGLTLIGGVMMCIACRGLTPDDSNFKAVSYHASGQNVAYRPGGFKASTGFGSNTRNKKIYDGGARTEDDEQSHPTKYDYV

[31] = biological target: human Claudin 18.2 (CLDN18.2) expressed on cells (human) (UniProt P56856); experiment: FACS, purified chimeric antibody on HEK 293 cells expressing CLDN18.2

MFI [1]: 30
B1: 11E12 (mouse hybridoma subclone antibody) (antibody, V domains shown)
VH: QVQLQQSGAELARPGASVKLSCKASGYTFTSYVINWVKQKTGQGLEWIGEIHPRGGNTYYSEKFRGRATLTADKSSSTAYMEFRSLTSEDSAVYFCAILRRGNAMDYWDQGTAVTVSS
VL: DIVMTQSPSSLPVTAGEMVTMSCKSSQSLLNSGNQRNYLTWYQQKPGQPPKLLIYWASTRESGVPDRFTGSGSGTDFTLTISSVQAEDLAVYYCQNSYNYPYTFGGGTKLERK

MFI [2]: 19.6
MFI [3]: 18.7
MFI [4]: 20.4
MFI [5]: 19.9
MFI [6]: 18.1
MFI [7]: 20.4
MFI [8]: 19.5
MFI [9]: 21.4
MFI [10]: 19.8
MFI [11]: 21.2
MFI [12]: 20.8
MFI [13]: 21.1
MFI [14]: 20.8
MFI [15]: 18.4
MFI [16]: 20.9
MFI [17]: 19.3
MFI [18]: 21.4
MFI [19]: 19.7
Kd [20]: 0.0869 µM
kon [20]: 1600 M⁻¹ s⁻¹
MFI [21]: 4040
koff [22]: 0.000139 s⁻¹
ADCC NUGC4 Cells [23]: 610 ng/mL
ADCC with 293 cells expressing Claudin 18.2 [23]: 0.014 nM and 0.006 nM
Kd [24]: 0.089 µM and 0.071 µM
MFI [25]: 3880
EC50 [26]: 0.00117 µM
FACS Signal MFI (×1000) [26]: 25000 MFI
B2: Internal Reference (reference antibody with the heavy and light chain sequences of Zolbetuximab) (antibody, INN chains, looked up, V domains shown)
VH: QVQLQQPGAELVRPGASVKLSCKASGYTFTSYWINWVKQRPGQGLEWIGNIYPSDSYTNYNQKFKDKATLTVDKSSSTAYMQLSSPTSEDSAVYYCTRSWRGNSFDYWGQGTTLTVSS
VL: DIVMTQSPSSLTVTAGEKVTMSCKSSQSLLNSGNQKNYLTWYQQKPGQPPKLLIYWASTRESGVPDRFTGSGSGTDFTLTISSVQAEDLAVYYCQNDYSYPFTFGSGTKLEIKR

Kd [20]: 0.0125 µM
kon [20]: 2320 M⁻¹ s⁻¹
MFI [27]: 19.4
MFI [28]: 18.9
MFI [29]: 553
MFI [30]: 3490
koff [22]: 2.9e-05 s⁻¹
ADCC NUGC4 Cells [23]: 70 ng/mL
ADCC with 293 cells expressing Claudin 18.2 [23]: 0.015 nM
Kd [24]: 0.012 µM
EC50 [31]: 0.000619 µM
FACS Signal MFI (×1000) [31]: 55000 MFI
B3: Clone # 46 (purified chimeric rabbit/human antibody) (antibody, V domains shown)
VH: QQQLVESGGGLVKPGGTLTLTCTVSGFYFNRGYWICWVRQAPGKGLEWIGCIDTGSGVPYYANWAKGRFTISKTSSTAVTLQMTSLTAADTATYFCARNSDSIYFNLWGPGTLVTVSS
VL: DIVMTQTPASVSEPVGGTVTIKCQASQSIGGYLSWYQQKPGQPPKLLIYKASTLASGVPSRFKGSGSGTDFTLTISDLECADAATYYCQNYAGVSIYGAVFGGGTKVVVVR
